From publication PMC8643638 (Nucleic Acids Research, 2021)

Columns and labels:
[1] = molecular target: T1, Sis0811Δ268 (Saccharolobus islandicus, UniProt F0NH89); test: isothermal titration calorimetry, single-site model; assay type: binding
T1 sequence (F0NH89 1-268): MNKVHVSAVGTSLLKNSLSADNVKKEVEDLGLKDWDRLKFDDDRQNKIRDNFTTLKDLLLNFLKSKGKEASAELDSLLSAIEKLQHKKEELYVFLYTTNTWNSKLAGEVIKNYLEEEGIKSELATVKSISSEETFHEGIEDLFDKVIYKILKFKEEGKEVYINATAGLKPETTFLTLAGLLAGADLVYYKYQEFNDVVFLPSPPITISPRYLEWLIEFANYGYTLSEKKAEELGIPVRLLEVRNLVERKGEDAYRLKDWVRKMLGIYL

[2] = molecular target: T2, Sis0811 (SisRN0811), full length (Saccharolobus islandicus, UniProt F0NH89); test: as above; assay type: binding
T2 sequence (F0NH89 1-322): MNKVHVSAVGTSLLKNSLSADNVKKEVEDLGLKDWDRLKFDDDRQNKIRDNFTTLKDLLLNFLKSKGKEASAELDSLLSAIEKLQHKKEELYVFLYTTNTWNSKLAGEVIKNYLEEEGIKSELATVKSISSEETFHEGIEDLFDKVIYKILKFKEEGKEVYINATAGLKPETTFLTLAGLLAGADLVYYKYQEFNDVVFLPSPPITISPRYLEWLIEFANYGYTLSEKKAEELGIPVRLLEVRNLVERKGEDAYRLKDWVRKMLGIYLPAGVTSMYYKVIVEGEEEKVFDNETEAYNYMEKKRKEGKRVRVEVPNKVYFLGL

[3] = molecular target: the molecule itself; test: SEC-MALS
[4] = molecular target: the molecule itself; test: crystal structure

| Molecule | stoichiometry N [3] | binding result [4] | also measured |
| --- | --- | --- | --- |
| Nc1ncnc2c1ncn2[C@@H]1O[C@@H]2COP(=O)(O)O[C@H]3[C@@H](O)[C@H](n4cnc5c(N)ncnc54)O[C@@H]3COP(=O)(O)O[C@H]3[C@@H](O)[C@H](n4cnc5c(N)ncnc54)O[C@@H]3COP(=O)(O)O[C@H]3[C@@H](O)[C@H](n4cnc5c(N)ncnc54)O[C@@H]3COP(=O)(O)O[C@H]2[C@H]1O [cA4] | – | – | Kd [1]: 5.9 nM; Kd [2]: 9.1 nM |
| Sis0811_(Δ268) (truncated Sis0811 lacking the C-terminal 54 residues) (domain or fragment, Sulfolobus islandicus REY15A, UniProt F0NH89 1-268, looked up) MNKVHVSAVGTSLLKNSLSADNVKKEVEDLGLKDWDRLKFDDDRQNKIRDNFTTLKDLLLNFLKSKGKEASAELDSLLSAIEKLQHKKEELYVFLYTTNTWNSKLAGEVIKNYLEEEGIKSELATVKSISSEETFHEGIEDLFDKVIYKILKFKEEGKEVYINATAGLKPETTFLTLAGLLAGADLVYYKYQEFNDVVFLPSPPITISPRYLEWLIEFANYGYTLSEKKAEELGIPVRLLEVRNLVERKGEDAYRLKDWVRKMLGIYL | 2 | – | – |
| Sis0811_(Δ268)(S12G/K169G) (domain or fragment, Sulfolobus islandicus REY15A, UniProt F0NH89 1-268, looked up) MNKVHVSAVGTGLLKNSLSADNVKKEVEDLGLKDWDRLKFDDDRQNKIRDNFTTLKDLLLNFLKSKGKEASAELDSLLSAIEKLQHKKEELYVFLYTTNTWNSKLAGEVIKNYLEEEGIKSELATVKSISSEETFHEGIEDLFDKVIYKILKFKEEGKEVYINATAGLGPETTFLTLAGLLAGADLVYYKYQEFNDVVFLPSPPITISPRYLEWLIEFANYGYTLSEKKAEELGIPVRLLEVRNLVERKGEDAYRLKDWVRKMLGIYL | – | binds | – |
| Sis0811_(Δ268)(S12A) (domain or fragment, Sulfolobus islandicus REY15A, UniProt F0NH89 1-268, looked up) MNKVHVSAVGTALLKNSLSADNVKKEVEDLGLKDWDRLKFDDDRQNKIRDNFTTLKDLLLNFLKSKGKEASAELDSLLSAIEKLQHKKEELYVFLYTTNTWNSKLAGEVIKNYLEEEGIKSELATVKSISSEETFHEGIEDLFDKVIYKILKFKEEGKEVYINATAGLKPETTFLTLAGLLAGADLVYYKYQEFNDVVFLPSPPITISPRYLEWLIEFANYGYTLSEKKAEELGIPVRLLEVRNLVERKGEDAYRLKDWVRKMLGIYL | – | binds | – |
| Sis0811 full length (standalone ring nuclease from Sulfolobus islandicus REY15A) (enzyme, UniProt F0NH89 1-322, looked up) MNKVHVSAVGTSLLKNSLSADNVKKEVEDLGLKDWDRLKFDDDRQNKIRDNFTTLKDLLLNFLKSKGKEASAELDSLLSAIEKLQHKKEELYVFLYTTNTWNSKLAGEVIKNYLEEEGIKSELATVKSISSEETFHEGIEDLFDKVIYKILKFKEEGKEVYINATAGLKPETTFLTLAGLLAGADLVYYKYQEFNDVVFLPSPPITISPRYLEWLIEFANYGYTLSEKKAEELGIPVRLLEVRNLVERKGEDAYRLKDWVRKMLGIYLPAGVTSMYYKVIVEGEEEKVFDNETEAYNYMEKKRKEGKRVRVEVPNKVYFLGL | 2 | – | – |
